The values below come from US20180118829A1 (JOUNCE THERAPEUTICS, published 2018).

Experiment [1] concerns the target Human PD-1 (monovalent antigen) (human, UniProt Q15116 25-167, limits assumed). The experiment can be described thus: ForteBio BLI, IgG on AHQ sensor, monovalent antigen in solution. In general terms: BLI is a label-free optical method that tracks binding on a fibre tip over time.
Protocol: (§1) The affinity of the PD-1 antibodies was determined by measuring their KD by ForteBio or MSD-SET. […] Briefly, ForteBio affinity measurements were performed by loading IgGs on-line onto AHQ sensors. Sensors were equilibrated off-line in assay buffer for 30 min and then monitored on-line for 60 seconds for baseline establishment. Sensors with loaded IgGs were exposed to 100 nM antigen for 5 minutes, afterwards they were transferred to assay buffer for 5 min for off-rate measurement. Kinetics were analyzed using the 1:1 binding model.
Experiment [2] has as its target T1, Mouse PD-1 (monovalent antigen) (mouse, UniProt Q02242 25-167, limits assumed).
T1 sequence (looked up): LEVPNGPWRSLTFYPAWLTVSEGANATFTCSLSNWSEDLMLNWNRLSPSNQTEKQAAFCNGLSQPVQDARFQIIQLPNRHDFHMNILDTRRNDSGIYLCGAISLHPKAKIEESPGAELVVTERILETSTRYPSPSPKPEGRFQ
The description is as above.
Protocol: as §1

Experiment [3] concerns the target T2, Human PD-1 extracellular domain (ECD)-Fc-His6 (human).
T2 construct: also called Human WT PD-1 ECD-Fc fusion
Put plainly: BLI (ForteBio OctetRED96), PD-1 ECD-Fc-His6 panel; Y = affinity within ~5-fold of WT human PD-1.
Protocol: (§2) All protein interactions were assessed on a ForteBio OctetRED96 instrument. Proteins were diluted in kinetics buffer formulation (PBS +0.1% BSA, 0.02% Tween20, 0.05% sodium azide) with a sample volume was 220 μl/well. Ligand concentrations were normalized at 10 μg/ml and analyte concentrations at 100 nM. The blocking reagent was employed at a concentration of 250 μg/ml. Sensor equilibration time was set for 60 sec, and sample loading time established at 300 sec. Human Fc blocking time was set for 300 sec. Analysis of association time was set for 300 sec and dissociation time for 600 sec.

Experiment [4] has as its target Human PD-1 D85G ECD-Fc-His6 (human). The experiment is described as above.
Protocol: as §2
The target in experiment [5] is Human PD-1 R86L ECD-Fc-His6 (human). Described as above.
Human PD-1 R86L ECD-Fc-His6 (human), sequence (chain, as listed by the source R86L R86L limits assumed): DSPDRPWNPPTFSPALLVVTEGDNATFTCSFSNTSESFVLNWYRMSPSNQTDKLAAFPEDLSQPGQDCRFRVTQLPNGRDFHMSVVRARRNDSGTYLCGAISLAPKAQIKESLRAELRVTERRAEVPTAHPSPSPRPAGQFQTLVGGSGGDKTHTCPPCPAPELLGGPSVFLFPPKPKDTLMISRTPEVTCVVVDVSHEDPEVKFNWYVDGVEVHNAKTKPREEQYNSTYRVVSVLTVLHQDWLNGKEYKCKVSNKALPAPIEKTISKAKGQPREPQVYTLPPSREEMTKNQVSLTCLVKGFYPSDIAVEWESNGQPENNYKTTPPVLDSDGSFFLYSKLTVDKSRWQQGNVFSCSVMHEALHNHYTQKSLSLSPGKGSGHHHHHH
Protocol: as §2
Experiment [6] deals with Human PD-1 D85G/R86L ECD-Fc-His6 (human). The experiment is described as above.
Human PD-1 D85G/R86L ECD-Fc-His6 (human), sequence (chain, as listed by the source D85G R86L D85G R86L limits assumed): as the sequence (chain, as listed by the source R86L R86L limits assumed) above, with D60G counted along it
Protocol: as §2
The target in experiment [7] is T3, Human PD-1 N33-Q167 ECD-Fc-His6 (human).
T3 construct: also called N-terminal truncated variant N33-Q167
T3 sequence (chain, as listed by the source limits assumed): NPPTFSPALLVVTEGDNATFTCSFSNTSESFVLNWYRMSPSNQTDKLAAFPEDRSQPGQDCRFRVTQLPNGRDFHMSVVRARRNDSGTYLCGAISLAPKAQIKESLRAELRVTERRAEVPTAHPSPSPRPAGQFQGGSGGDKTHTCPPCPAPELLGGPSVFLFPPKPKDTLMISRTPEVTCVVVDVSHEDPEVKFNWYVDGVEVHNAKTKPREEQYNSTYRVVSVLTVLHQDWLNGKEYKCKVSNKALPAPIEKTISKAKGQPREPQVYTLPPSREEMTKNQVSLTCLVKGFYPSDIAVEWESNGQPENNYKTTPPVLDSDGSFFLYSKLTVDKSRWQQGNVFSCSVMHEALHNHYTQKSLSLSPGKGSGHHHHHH
The description is as above.
Protocol: as §2

The target in experiment [8] is Human PD-1 K78A ECD-Fc-His6 (human). The experiment is described as above.
Human PD-1 K78A ECD-Fc-His6 (human), sequence (chain, as listed by the source K78A K78A limits assumed): as the sequence (chain, as listed by the source R86L R86L limits assumed) above, with K53A, L61R counted along it
Protocol: as §2
A further experiment concerns the target T4, Mouse PD-1 ECD-Fc-His6 (mouse).
T4 construct: also called Mouse WT PD-1 ECD-Fc fusion
The experiment is described as above.

The target in experiment [9] is Rat P129H PD-1 ECD-Fc-His6 (rat). Described as above.
Rat P129H PD-1 ECD-Fc-His6 (rat), sequence (chain, as listed by the source P129H P129H limits assumed): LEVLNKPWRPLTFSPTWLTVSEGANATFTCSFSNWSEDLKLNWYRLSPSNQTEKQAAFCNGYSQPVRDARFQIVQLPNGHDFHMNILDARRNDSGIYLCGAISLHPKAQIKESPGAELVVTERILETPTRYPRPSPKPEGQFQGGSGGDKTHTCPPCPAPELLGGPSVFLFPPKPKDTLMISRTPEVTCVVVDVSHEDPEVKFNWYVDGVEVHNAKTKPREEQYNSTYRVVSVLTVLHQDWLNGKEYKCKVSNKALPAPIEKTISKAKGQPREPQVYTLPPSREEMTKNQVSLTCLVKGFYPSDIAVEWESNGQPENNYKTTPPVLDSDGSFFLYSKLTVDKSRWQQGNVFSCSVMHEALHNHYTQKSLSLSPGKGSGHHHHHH
Protocol: as §2
The target in experiment [10] is T5, Cynomolgus monkey PD-1 ECD-Fc-His6 (cynomolgus monkey).
T5 construct: also called Cyno WT PD-1 ECD-Fc fusion
T5 sequence (chain, as listed by the source limits assumed): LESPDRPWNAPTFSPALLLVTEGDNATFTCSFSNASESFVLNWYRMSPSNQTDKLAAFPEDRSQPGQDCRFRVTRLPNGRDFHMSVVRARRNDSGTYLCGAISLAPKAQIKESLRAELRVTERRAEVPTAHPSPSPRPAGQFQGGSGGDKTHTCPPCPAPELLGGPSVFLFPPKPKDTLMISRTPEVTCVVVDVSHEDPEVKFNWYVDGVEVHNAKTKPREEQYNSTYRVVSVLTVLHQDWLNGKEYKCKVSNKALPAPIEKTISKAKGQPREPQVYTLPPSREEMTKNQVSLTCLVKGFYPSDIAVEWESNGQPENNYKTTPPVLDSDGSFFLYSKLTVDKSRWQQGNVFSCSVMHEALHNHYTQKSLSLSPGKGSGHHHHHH
The description is as above.
Protocol: as §2

Experiment [11] deals with Human PD-1 I126A ECD-Fc-His6 (human). Put plainly: BLI (ForteBio OctetRED96), PD-1 ECD-Fc-His6 panel; Reduced = affinity reduced >10-fold and <100-fold vs WT human PD-1.
Human PD-1 I126A ECD-Fc-His6 (human), sequence (chain, as listed by the source I126A I126A limits assumed): as the sequence (chain, as listed by the source R86L R86L limits assumed) above, with L61R, I101A counted along it
Protocol: as §2
Experiment [12] concerns the target Human PD-1 L128A ECD-Fc-His6 (human). The experiment is described as above.
Protocol: as §2

Changes are numbered by the printed parent chain.

Human PD-1 (monovalent antigen), sequence (Q15116 25-167 limits assumed): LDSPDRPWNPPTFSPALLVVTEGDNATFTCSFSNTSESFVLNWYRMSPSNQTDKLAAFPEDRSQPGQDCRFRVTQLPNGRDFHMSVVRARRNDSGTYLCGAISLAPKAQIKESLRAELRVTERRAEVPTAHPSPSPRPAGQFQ
T2 sequence (chain, as listed by the source limits assumed): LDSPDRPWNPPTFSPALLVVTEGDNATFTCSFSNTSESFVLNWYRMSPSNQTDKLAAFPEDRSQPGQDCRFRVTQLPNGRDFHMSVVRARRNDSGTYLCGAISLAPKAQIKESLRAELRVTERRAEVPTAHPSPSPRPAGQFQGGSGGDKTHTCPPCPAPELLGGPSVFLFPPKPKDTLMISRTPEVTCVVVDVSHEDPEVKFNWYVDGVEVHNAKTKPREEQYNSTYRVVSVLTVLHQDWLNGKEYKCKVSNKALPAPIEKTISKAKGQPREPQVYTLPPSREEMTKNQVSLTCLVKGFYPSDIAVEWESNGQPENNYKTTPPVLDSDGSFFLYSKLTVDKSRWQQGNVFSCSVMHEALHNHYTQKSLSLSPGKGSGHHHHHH
Human PD-1 L128A ECD-Fc-His6 (human), sequence (chain, as listed by the source L128A L128A limits assumed): as the sequence (chain, as listed by the source R86L R86L limits assumed) above, with L61R, L103A counted along it
Human PD-1 D85G ECD-Fc-His6 (human), sequence (chain, as listed by the source D85G D85G limits assumed): as the sequence (chain, as listed by the source R86L R86L limits assumed) above, with D60G, L61R counted along it
Protocol for Mouse PD-1 ECD-Fc-His6: as §2

B1: antibody 13406 (antibody, V domains shown)
VH: QVQLVQSGAEVKKPGASVKVSCKASGYTFDQYYMHWVRQAPGQGLEWMGIINPSGGSTAYAQKFQGRVTMTRDTSTSTVYMELSSLRSEDTAVYYCARGGTYYDYTYWGQGTLVTVSS
VL: DIQMTQSPSTLSASVGDRVTITCRASQSISSWLAWYQQKPGKAPKLLIYEASSLESGVPSRFSGSGSGTEFTLTISSLQPDDFATYYCQQYNSFPPTFGGGTKVEIK
Regarding B1, the values for the Kd in experiment [1] and in experiment [2] were 3.2 nM and 3.5 nM, respectively.

B2: antibody 13405 (antibody, V domains shown)
VH: QVQLVQSGAEVKKPGASVKVSCKASGYTFASYYMGWVRQAPGQGLEWMGIINPAGGSTAYAQKFQGRVTMTRDTSTSTVYMELSSLRSEDTAVYYCARHEYGMDVWGQGTTVTVSS
VL: B1 VL
In the case of B2, the Kd in experiment [1] is 73 nM; in experiment [2] it was 7.2 nM.

B3: 13407 Fab (Fab, V domains shown)
VH: B1 VH with D30P, Q31S, S54E
VL: B1 VL
For B3, the binding result in [3], in [4], in experiment [5], in experiment [6], in experiment [7] and in [8] was “binds” each time. The binding result (with Mouse PD-1 ECD-Fc-His6; in [9]; in experiment [10]; in experiment [11]; in experiment [12]) was “binds” throughout.

B4: antibody 13408 (antibody, V domains shown)
VH: B1 VH with D30S, Q31D, S57V
VL: B1 VL
For the molecule B4, the Kd is 1.2 nM in experiment [1] and 5.3 nM in experiment [2].

B5: antibody 13407 (antibody, V domains shown)
VH: B1 VH with D30P, Q31S, S54E
VL: B1 VL
On to B5, for which the Kd in [1] amounted to 3.9 nM; in [2] it was 3.2 nM.

B6: antibody 12228 (antibody, V domains shown)
VH: B1 VH with D30T, Q31S, A59S
VL: B1 VL
As to B6, the Kd in experiment [1] stood at 49 nM; in experiment [2], 6.3 nM.

The Kd is a measure of binding affinity in units of concentration.
